Results reported in patent CN110655572A.

What was measured:
马尔堡病毒GP蛋白 (马尔堡病毒 (MARV)) [1] = assay: cell-based or functional assay
[2] = biological target: 苏丹型GP蛋白 (苏丹型埃博拉病毒 (SUDV)); assay: cell-based or functional assay
[3] = biological target: 扎依尔型GP蛋白 (扎依尔型埃博拉病毒 (ZEBOV)); assay: cell-based or functional assay
马尔堡病毒GP蛋白 (马尔堡病毒 (MARV)) [4] = assay: ELISA, GP protein coated on plate, goat anti-human IgG-HRP detection
[5] = biological target: 苏丹型GP蛋白 (苏丹型埃博拉病毒 (SUDV)); assay: as above
[6] = biological target: 扎依尔型GP蛋白 (扎依尔型埃博拉病毒 (ZEBOV)); assay: as above

B1: 单克隆抗体40C1L (antibody, V domains shown)
VH: EVQLVQSGAEVKRPGESLKISCKTSGYSFPTYWITWVRQMPGKGLEWMGTIDLSDSETKYSPSFDGQVTISADKSINTAYLQWSSLKASDSATYYCAMRYSNYRTWFNVWGPGVLVTVSS
VL: SYDLTQPPSVSVSPGQTARITCGGDNIGSEAVHWYQQQPPQAPVLVIYYNRERPSGIPERFSGSKSGNTATLTISGVEAGDEADYYCQLWDSSSDYPLFGGGTRLTVL
假病毒中和 最大半数抑制浓度(IC50) (马尔堡病毒GP蛋白 (马尔堡病毒 (MARV)) [1]): 14.5 µg/mL | 假病毒中和 最大半数抑制浓度(IC50) [2]: 3.12 µg/mL | 假病毒中和 最大半数抑制浓度(IC50) [3]: 25.3 µg/mL | EC50 (马尔堡病毒GP蛋白 (马尔堡病毒 (MARV)) [4]): 0.342 µg/mL | EC50 [5]: 2.09 µg/mL | EC50 [6]: 0.697 µg/mL
